Changes are numbered by the printed parent chain. Values belong to the binder of their own block, whether it stands above or below them.
Biological target: T1, hK1 (human tissue kallikrein 1), recombinant (human, UniProt P06870 25-262)
T1 construct: Expressed in P. pastoris from KLK1 cDNA and purified; enzymatically active; also called KLK1; Recombinant (Pichia) Kallikrein
Assay: SPR

Kd: 8.69 nM | koff: 0.00575 s⁻¹ | kon: 662000 M⁻¹ s⁻¹
B1: M0127-C06 (Fab, V domains shown)
VH: EVQLLESGGGLVQPGGSLRLSCAASGFTFSNYPMHWVRQAPGKGLEWVSYIGPSGGWTRYADSVKGRFTISRDNSKNTLYLQMNSLRAEDTAVYYCARAPSGYWGQGTLVTVSS
VL: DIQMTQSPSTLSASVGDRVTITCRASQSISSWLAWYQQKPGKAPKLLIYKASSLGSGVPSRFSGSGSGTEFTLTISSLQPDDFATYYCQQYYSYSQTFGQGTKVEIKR

Kd: 7.45 nM | koff: 0.0035 s⁻¹ | kon: 470000 M⁻¹ s⁻¹
B4: M0109-A11 (Fab, V domains shown)
VH: EVQLLESGGGLVQPGGSLRLSCAASGFTFSNYTMTWVRQAPGKGLEWVSVIYPSGGHTTYADSVKGRFTISRDNSKNTLYLQMNSLRAEDTAMYYCARGGRWFSLDYWGQGTLVTVSS
VL: AQSELTQPASVSGSPGQSITISCTGTSSDVGGYNYLSWYQQHPGKAPKLMIYGVSNRPSGVSTRFSGSKSGNTASLTISGLQAEDEADYYCSSYTSTGTRVFGGGTRLTVLG

Kd: 5.9 nM | koff: 0.000655 s⁻¹ | kon: 111000 M⁻¹ s⁻¹
B6: M0135-B05 (Fab, V domains shown)
VH: EVQLLESGGGLVQPGGSLRLSCAASGFTFSHYLMDWVRQAPGKGLEWVSVIYPSGGHTNYADSVKGRFTISRDNSKNTLYLQMNSLRAEDTAVYYCARVGVWYGMDVWGQGTTVTVSS
VL: DIQMTQSPSSLSASVGDRVTITCRASQSISTYLNWYQQKPGKAPNLLIYAASSLQSGVPSRFSGSGSGTDFTLTVSSLQPEDFGTYYCQQYNSFPFSFGQGTRLEINR

Kd: 7.8 nM | koff: 0.00307 s⁻¹ | kon: 394000 M⁻¹ s⁻¹
B9: M0130-B02 (Fab, V domains shown)
VH: B6 VH with H31N, L33S, D35V, V50R, P53S, H57S, N59H
VL: AQSALTQPASVSGSPGQSITISCTDTSGNVGSYNLVSWYQQHPDKAPKLMIFEVSRRPSGVSDRFSGSKSGNTASLTISGLQAEDEADYYCCSYAGSNTYVFGTGTKVTVLG

Kd: 6.38 nM | koff: 0.00134 s⁻¹ | kon: 210000 M⁻¹ s⁻¹
B10: M0110-D11 (Fab, V domains shown)
VH: B6 VH with D35Y, V50R, Y52G, H57W, N59K
VL: B4 VL with S28T, L36V, Q41K, G53D, T63N, S96N, G98I, R100V, R107K

Kd: 7.57 nM | koff: 0.00206 s⁻¹ | kon: 272000 M⁻¹ s⁻¹
B13: M0135-E10 (Fab, V domains shown)
VH: EVQLLESGGGLVQPGGSLRLSCAASGFTFSWYRMSWVRQAPGKGLEWVSSISPSGGPTKYADSVKGRFTISRDNSKNTLYLQMNSLRAEDTAVYYCARPSGDSSVYRPFASWGQGTLVTVSS
VL: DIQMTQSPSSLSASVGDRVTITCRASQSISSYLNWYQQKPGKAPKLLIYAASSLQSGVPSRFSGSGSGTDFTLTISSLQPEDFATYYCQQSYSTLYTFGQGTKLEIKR

Kd: 5.97 nM | koff: 0.00284 s⁻¹ | kon: 476000 M⁻¹ s⁻¹
B15: M0136-F08 (Fab, V domains shown)
VH: EVQLLESGGGLVQPGGSLRLSCAASGFTFSHYKMGWVRQAPGKGLEWVSSIRPSGGATKYADSVKGRFTISRDNSKNTLYLQMNSLRAEDTAVYYCARVGIWDAFDIWGQGAMVTVSS
VL: DIQMTQSPGTLSLSPGERATLSCRASQSVSSSYLAWYQQKPGQAPRLLIYDASNRATGIPARFSGSGSGTDFTLTISSLEPEDFAVYYCQQWDTFGQGTKLEIKR

Kd: 6.17 nM | koff: 0.00601 s⁻¹ | kon: 975000 M⁻¹ s⁻¹
B16: M0110-H11 (Fab, V domains shown)
VH: B15 VH with G35E, S50R, A57V, A97T, V99G, I101L, A112T
VL: DIQMTQSPSSLSASVGDRVTITCRASQSISSYLNWYQQKPGKAPKLLIYAASSLQSGVPSRFSGSGSGTDFTLTISSLHPEDFATYYCQQTYSTLFTFGPGTKVHIKR

Kd: 10 nM | koff: 0.00149 s⁻¹ | kon: 148000 M⁻¹ s⁻¹
B18: M0138-E12 (Fab, V domains shown)
VH: EVQLLESGGGLVQPGGSLRLSCAASGFTFSWYVMRWVRQAPGKGLEWVSSIYPSGGQTRYADSVKGRFTISRDNSKNTLYLQMNSLRAEDTAMYYCATGYSSTWGAFDIWGQGTMVTVSS
VL: AQSALTQPASVSGSPGQSITISCSGTSSDVGAYYHVSWYQQHPGKAPKLMIYEVTNRPSGISNRFSGSKSGNTASLTISGLQADDEADYFCSSYTTSNTLVFGGGTKVTVLG

Kd: 6.85 nM | koff: 0.00231 s⁻¹ | kon: 337000 M⁻¹ s⁻¹
B21: M0135-C11 (Fab, V domains shown)
VH: EVQLLESGGGLVQPGGSLRLSCAASGFTFSNYSMQWVRQAPGKGLEWVSGIRPSGGSTRYADSVKGRFTISRDNSKNTLYLQMNSLRAEDTAVYYCAVSTGGYYYGMDVWGQGTTVTVSS
VL: DIQMTQSPSSVSASVGDRVTITCRASQGISSWLAWYQQKPGKAPKLLIYAASSLQSGVPSRFSGSGSGTDFTLTISSLQPEDFATYYCQQANSFPSLTFGGGTKVEIKR

Second part, the binder before the results:

B2: M0093-G06 (Fab, V domains shown)
VH: EVQLLESGGGLVQPGGSLRLSCAASGFTFSNYHMDWVRQAPGKGLEWVSVIGPSGGFTRYADSVKGRFTISRDNSKNTLYLQMNSLRAEDTAVYYCARALGGSLDYWGQGTLVTVSS
VL: AQSALTQPRSVSGSLGQSVTISCTGSTSDVGGYTYVSWYQQEPGKAPKLMIHDVSKRPSGVPDRFSGSKSGNTASLIISGLQAEDEADYYCCSYAGSYSYVFGTGTKVTVLG
Kd: 8.4 nM | koff: 0.00313 s⁻¹ | kon: 372000 M⁻¹ s⁻¹

B3: M0098-E01 (Fab, V domains shown)
VH: EVQLLESGGGLVQPGGSLRLSCAASGFTFSMYGMTWVRQAPGKGLEWVSGISPSGGRTYYADSVKGRFTISRDNSKNTLYLQMNSLRAEDTAVYYCAKHRRDYVWWTYGMDVWGQGTTVTVSS
VL: DIQMTQSPATLSLSPGERATLSCRASQSVSGFLAWYQQKPGQAPRLLIYDASNRATGIPARFSGSGSGTDFTLTITRLEPEDFAVYYCQQYGDSSPITFGPGTRLEIKR
Kd: 6.8 nM | koff: 0.00101 s⁻¹ | kon: 148000 M⁻¹ s⁻¹

B5: M0107-D01 (Fab, V domains shown)
VH: B4 VH with N31W, T33G, T35G, Y52R, H57T, T59R, M93V, W102Y, F103Y
VL: AQSELTQPASVSGPPGQSITISCTGTSSDVGGYNYVSWYQQHPGKAPKLIIYEVSNRPSGVSYRFSASKSDNTASLTISGVQAEDEADYYCSSYKRGGTYVFGTGTTVIVL
Kd: 9.06 nM | koff: 0.00812 s⁻¹ | kon: 896000 M⁻¹ s⁻¹

B7: M0107-F11 (Fab, V domains shown)
VH: B6 VH with L33Q, D35H, V50S, Y52R, H57R, N59A
VL: DIQMTQSPGTLSLSPGERATLSCRASQSVSGSYLAWYQQKPGQAPSLLIYGAYSRATGIPDRFSGSGSGTDFTLTISRLEPEDFAVYYCQHYGSSPRTFGGGTKVEIKR
Kd: 9.71 nM | koff: 0.0066 s⁻¹ | kon: 680000 M⁻¹ s⁻¹

B8: M0092-F08 (Fab, V domains shown)
VH: B6 VH with L33P, D35I, V50G, P53S, H57T, N59K
VL: DIQMTQSPATLSLSPGERATLSCGASQSVSSSYLAWYQQKPGLAPRLLIYDASSRATGIPDRFSGSGSGTDFTLTISSLQPEDFATYYCLHDYNFPFTFGPGTKVDIKR
Kd: 7.27 nM | koff: 0.00158 s⁻¹ | kon: 218000 M⁻¹ s⁻¹

B11: M0095-A11 (Fab, V domains shown)
VH: B6 VH with H31P, L33M, D35G, V50S, Y52R, P53S, H57A, N59A, V93T
VL: DIQMTQSPATLSLSPGERATLSCRASQSVSSYLAWYQQKPGQAPRLLIYDASNRATGIPARFSGSGSGTDFTLTISSLEPEDFAVYYCQQRSNWPPYTFGQGTKLEIKR
Kd: 7.22 nM | koff: 0.00379 s⁻¹ | kon: 525000 M⁻¹ s⁻¹

B12: M0097-D04 (Fab, V domains shown)
VH: EVQLLESGGGLVQPGGSLRLSCAASGFTFSHYFMHWVRQAPGKGLEWVSYISSSGGLTGYADSVKGRFTISRDNSKNTLYLQMNSLRAEDTAVYYCARRGPVYYYDSSGSHSAFDIWGQGTMVTVS
VL: AQSELTQPPSASGTPGQRVTISCSGSSSNIGSNYVYWYQQLPGMAPKLLIYRNNQRPSGVPDRFSGSKSGTSASLAISGLRSEDEADYYCAAWDDSMSGVVFGGGTKLTVLS
Kd: 8.28 nM | koff: 0.00168 s⁻¹ | kon: 203000 M⁻¹ s⁻¹

B14: M0104-B12 (Fab, V domains shown)
VH: EVQLLESGGGLVQPGGSLRLSCAASGFTFSIYAMIWVRQAPGKGLEWVSSIYSSGGPTQYADSVKGRFTISRDNSKNTLYLQMNSLRAEDTAVYYCARGRRTYYYDSSGYYKYAAFDIWGQGTMVTVSS
VL: DIQMTQSPSSLSASVGDRVTITCRASQAISNYLAWYQQQPGKVPKLLISAASTLQSGVPSRFSGSGSGTDFTLSISSLQPEDVATYYCQTYYSVPFTFGPGTKVDFKR
Kd: 7.41 nM | koff: 0.00171 s⁻¹ | kon: 230000 M⁻¹ s⁻¹

B17: M0105-B06 (Fab, V domains shown)
VH: B18 VH with W31H, V33A, R35G, S50R, Y52W, Q57H, R59Q
VL: DIQMTQSPSSLSASVGDRVTLTCRASQSIANYLNWYQQKPGKAPKLLVYAASRLHSGVPSRFSGRGSGTDFTLTITSLEPDDLATYYCQQSHASPLTFGGGTKVEIKR
Kd: 8.81 nM | koff: 0.0036 s⁻¹ | kon: 409000 M⁻¹ s⁻¹

B19: M0101-E01 (Fab, V domains shown)
VH: EVQLLESGGGLVQPGGSLRLSCAASGFTFSPYIMSWVRQAPGKGLEWVSSIVSSGGVTLYADSVKGRFTISRDNSKNTLYLQMNSLRAEDTAVYYCTKNINLRYDILTGYFDIWGQGTTVTVSS
VL: DIQMTQSPSSVSASVGDRVTITCRAGQNIYYWLAWYQQKPGKAPQLLIYAASSLQSGVPSRFSGSGSGTDFTLTISSLQPEDFATYYCQQAKSFPVTFGGGTKVEIKR
Kd: 9.74 nM | koff: 0.000941 s⁻¹ | kon: 96600 M⁻¹ s⁻¹

B20: M0108-E11 (Fab, V domains shown)
VH: EVQLLESGGGLVQPGGSLRLSCAASGFTFSNYSMMWVRQAPGKGLEWVSSIYPSGGFTKYADSVKGRFTISRDNSKNTLYLQMNSLRAEDTAVYYCARVGFYGGFVWGQGTTVTVSS
VL: B9 VL with S3Y, A4E, D25A, G28S, N29D, V30L, L35F, D63N
Kd: 8.5 nM | koff: 0.00355 s⁻¹ | kon: 418000 M⁻¹ s⁻¹
